Measurements reported in patent US20040138431A1 (Genentech, published 2004).

Target: trkB with a gD tag expressed on CHO cells
Test: cell-based or functional assay

EC50, kinase receptor activation (KIRA) assay: 0.0126 µg/mL
B1: recombinant human NT-4/5 (rhNT-4/5), correctly folded, intact, purified from E. coli (ligand)
chain: GVSETAPASRRGELAVCDAVSGWVTDRRTAVDLRGREVEVLGEVPAAGGSPLRQYFFETRCKADNAEEGGPGAGGGGCRGVDRRHWVSECKAKQSYVRALTAHAQGRVGWRWIRIDTACVCTLLSRTGRA
